For 2 substances, Kd results are on record in publication PMC3031671.

For this experiment, the target named is Fibronectin (FN) purified from human plasma (human). As to the kind of experiment: ELISA. For orientation: In an ELISA, binding on a coated surface is turned into a signal by an enzyme label.

“Isolated recombinant hemopexin-like carboxyl-terminal domain of MMP-2 (PEX) (from UniProt P08253 446-660) (domain or fragment)” had a Kd of 100 nM.

Regarding “Full-length MMP-2^E404A (catalytically inactive, ligand-binding matrix metalloproteinase-2) (from UniProt P08253 30-660) (enzyme)”, the Kd was 20 nM.

By Kd is commonly meant a measure of binding affinity in units of concentration. The low end stands for a tighter complex, the high end for a looser complex.
